Holding throughout (settings): both partners purified
Assay [1] deals with T1, PNUTS N-terminal domain (TND), rat, residues 5-160, C48S (rat, C48S).
T1 construct: PP1 nuclear targeting subunit (PNUTS, PPP1R10), rat, residues 5-160; Cloned in pRP1b; His6 tag cleaved with TEV protease; also called PNUTS C48S; PNUTS5-160 C48S; source: E. coli BL21 (DE3), purified (HisTrap, TEV cleavage, Ni-NTA flow-through, SEC)
T1 chain: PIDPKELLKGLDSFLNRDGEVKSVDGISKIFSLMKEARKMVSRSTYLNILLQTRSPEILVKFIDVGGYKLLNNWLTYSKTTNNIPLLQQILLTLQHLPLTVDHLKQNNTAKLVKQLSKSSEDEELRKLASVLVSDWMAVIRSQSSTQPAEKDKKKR
In words: ITC; Tox4 titrated into PNUTS; Affinity-ITC, 25 °C; 20 mM Tris pH 8.5, 150 mM NaCl, 0.1 mM ZnSO4, 0.5 mM TCEP; one-site model assuming 1:1 stoichiometry; 3 replicates. On the technique in general: ITC needs no label: the signal is the heat of the interaction.

The target of assay [2] is T2, PNUTS TND (rat PNUTS 5-160, C48S) (rat, UniProt O55000 5-160, C48S).
T2 construct: PNUTS (PPP1R10), rat, N-terminal TFIIS domain, residues 5-160; cloned in pRP1b; 15N-labelled for NMR; also called PNUTS N-terminal domain; PNUTS NTD; source: E. coli BL21 (DE3), purified (HisTrap, TEV cleavage, Ni-NTA flow-through, SEC)
T2 sequence (looked up): T1 chain with N16T, S28A, L50I, S55A, I58V, N73S
The assay can be described thus: NMR titration; 2D [1H,15N] HSQC of 15N-labelled PNUTS with zinc-loaded Tox4 at a 1:2 molar ratio; 20 mM MES pH 6, 150 mM NaCl, 5 mM DTT; 298 K.

Assay [3] addresses T2, PNUTS TND (rat PNUTS 5-160, C48S). In words: ITC; Tox4 titrated into PNUTS at 25°C; 20 mM Tris pH 8.5, 150 mM NaCl, 0.1 mM ZnSO4, 0.5 mM TCEP; one-site model assuming 1:1.

Results on 3 molecules are retold here after PMC12278311, “PNUTS:PP1 recruitment to Tox4 regulates chromosomal dispersal in Drosophila germline development” (Cell reports, 2025).

Positions count from the first letter of the chain named. Names may count otherwise.

B1: Tox4 C-terminal domain, human, residues 571-621, C601S (domain or fragment)
chain: RCVRSGCENPPIVSKDWDNEYCSNECVVKHSRDVFLAWVASRNSNTVVFVK
notes: TOX4, human, residues 571-621; Cloned in pTHMT (His6-MBP-TEV site); also called TOX4 C601S; Tox4571-621 C601S; source: E. coli BL21 (DE3) with 0.1 mM ZnSO4, purified (HisTrap, TEV cleavage, Ni-NTA and amylose resin, SEC); not shown: His6, N-terminal, cleaved; MBP, N-terminal, cleaved
What is called Kd is the free concentration of one partner at which half of the binding sites on the other are occupied at equilibrium, for simple one-to-one binding. Higher therefore signals a looser complex. As for B1, the Kd in assay [1] was 0.3 ± 0.2 nM.

B2: Tox4 CTD (human Tox4 571-621) (domain or fragment, UniProt O94842 571-621, looked up)
chain: B1 chain with S31C
notes: TOX4, human, C-terminal domain, residues 571-621; also called Tox4 C-terminal domain; zinc-loaded Tox4; source: E. coli BL21 (DE3) with 0.1 mM ZnSO4, purified (HisTrap, TEV cleavage, amylose resin, SEC); not shown: His6, N-terminal, cleaved; MBP, N-terminal, cleaved
For B2, in assay [2], the binding result is given as “binds”.

B3: Tox4 CTD (human Tox4 571-621, C601S) (domain or fragment, UniProt O94842 571-621, looked up)
chain: B1 chain
notes: TOX4, human, C-terminal domain, residues 571-621; also called Tox4_(C601S); source: E. coli BL21 (DE3) with 0.1 mM ZnSO4, purified (HisTrap, TEV cleavage, amylose resin, SEC); not shown: His6, N-terminal, cleaved; MBP, N-terminal, cleaved
B3 came in with a Kd in assay [3] of 0.3 nM. In other words, the sub-nanomolar range.
